Assays:
[1] = target: T1, GAD65 peptide on HLA-DRA*01:01 / HLA-DRB1*04:01 (human); assay: proliferation
T1 peptide: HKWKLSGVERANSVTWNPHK

[2] = target: T2, Influenza A MP54 (influenza M protein) peptide on HLA-DRA*01:01 / HLA-DRB1*04:01 (human); assay: proliferation
T2 peptide: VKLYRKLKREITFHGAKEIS

[3] = target: T2, Influenza A MP54 (influenza M protein) …; assay: activation reporter or marker

B1: Clone 566 (TCR)
alpha TRAV29DV5 TRAJ45 CDR3: CAASRYSGGGADGLTF
beta TRBV12-4 TRBJ1-1 CDR3: CASSVQGGNTEAFF
binding result [1]: recognises | binding result [2]: recognises

B2: P196-1 (TCR)
alpha TRAV29DV5 TRAJ45 CDR3: CAASRYSGGGADGLTF
beta TRBV12-4 TRBJ1-1 CDR3: CASSLQGGNTEAFF
binding result [1]: recognises | binding result [3]: recognises

B3: Clone 81 (TCR)
alpha TRAV29DV5 TRAJ45 CDR3: CAASRYSGGGADGLTF
beta TRBV12-4 TRBJ1-1 CDR3: CASSPQGGNTEAFF
binding result [1]: recognises | binding result [2]: recognises

— article PMC11176301 (2024)
